Source: paper PMC5595714, “Activation of secondary cell wall biosynthesis by miR319‐targeted TCP4 transcription factor”

T1: TCP4-HIS (UniProt Q8LPR5 1-420)
T1 sequence: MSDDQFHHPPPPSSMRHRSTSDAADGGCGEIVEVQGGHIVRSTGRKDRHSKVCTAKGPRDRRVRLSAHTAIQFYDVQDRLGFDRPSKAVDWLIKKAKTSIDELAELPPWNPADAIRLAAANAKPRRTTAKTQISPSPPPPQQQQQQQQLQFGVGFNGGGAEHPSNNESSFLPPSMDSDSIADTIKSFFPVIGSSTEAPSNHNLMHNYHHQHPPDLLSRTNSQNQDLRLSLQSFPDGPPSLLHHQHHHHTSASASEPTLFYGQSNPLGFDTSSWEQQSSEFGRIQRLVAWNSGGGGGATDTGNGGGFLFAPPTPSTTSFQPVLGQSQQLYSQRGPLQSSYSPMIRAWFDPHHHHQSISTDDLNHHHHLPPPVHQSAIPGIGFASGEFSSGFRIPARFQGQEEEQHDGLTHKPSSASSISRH

T2: rTCP4-HIS (UniProt Q8LPR5 1-420)
T2 sequence: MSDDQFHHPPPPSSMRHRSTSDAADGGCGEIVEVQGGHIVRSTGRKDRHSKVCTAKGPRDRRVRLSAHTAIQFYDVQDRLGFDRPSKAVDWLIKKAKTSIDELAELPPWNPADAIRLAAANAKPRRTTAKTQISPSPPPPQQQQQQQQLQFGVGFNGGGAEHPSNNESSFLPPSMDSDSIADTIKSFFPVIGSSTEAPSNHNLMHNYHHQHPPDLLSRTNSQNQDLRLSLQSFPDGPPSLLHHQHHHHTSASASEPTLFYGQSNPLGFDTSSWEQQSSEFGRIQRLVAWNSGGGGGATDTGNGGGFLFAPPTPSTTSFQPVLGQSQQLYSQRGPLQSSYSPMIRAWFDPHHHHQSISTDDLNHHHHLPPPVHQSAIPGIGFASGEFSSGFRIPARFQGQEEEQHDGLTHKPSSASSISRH

B1: VND7 promoter probe (dsDNA)
DNA 1: ATTGTTGGGTGGTCCCATAAAAAT
DNA 2: ATTTTTATGGGACCACCCAACAAT
B2: VND7 promoter cold probe (dsDNA)
DNA 1: ATTGTTGGGTGGTCCCATAAAAAT
DNA 2: ATTTTTATGGGACCACCCAACAAT

What was measured:
TCP4-HIS [1] = target: T1, TCP4-HIS; test: EMSA; 20 mM HEPES-KOH pH 7.8, 100 mM KCl, 1 mM EDTA, 0.1% BSA, 10 ng herring sperm DNA, 10% glycerol; 100 fmol probe, 1 ug protein, 20 uL, 30 min, room temperature; settings: protein: recombinant; tags: His (pET32a fusion); chain copies: 2; label: biotin 3'; blunt
rTCP4-HIS = target: T2, rTCP4-HIS; test: as above; settings: protein: recombinant; tags: His (pET32a fusion); chain copies: 2; label: biotin 3'; blunt
TCP4-HIS [2] = target: T1, TCP4-HIS; test: competition; 10x and 50x unlabeled probe against N1, dose-dependent; 20 mM HEPES-KOH pH 7.8, 100 mM KCl, 1 mM EDTA, 0.1% BSA, 10 ng herring sperm DNA, 10% glycerol; 100 fmol probe, 1 ug protein, 20 uL, 30 min, room temperature; settings: protein: recombinant; tags: His (pET32a fusion); chain copies: 2; blunt

Binder | binding result (TCP4-HIS [1]) | binding result (rTCP4-HIS) | binding result (TCP4-HIS [2])
B1 | binds | binds | –
B2 | – | – | binds
